# Source: paper PMC6943196
# Biological target: Tolypothrix sp. PCC 7601 Orange Carotenoid Protein 1 (OCP1) (Tolypothrix sp. PCC 7601)
# Experiment: crystal structure
substance,measurement,value
Tolypothrix sp. PCC 7601 Orange Carotenoid Protein 1 (OCP1) (natural protein),stoichiometry N,2
